# Data from patent US20170327598A1 (published 2017).
# Like-named read-outs stand apart in the source and are kept apart here.
# B1: anti-TNF-alpha VHH62 (SEQ ID NO:47) sdAb (VHH)
# VHH: QVQLVESGGGPVQAGETLRLSCTASGFTFAEADMGWYRQAPGHECELVSTITTEGITSEASSYYADSVRGRFTISRDNAKNMVYLQMNSLKPEDTAVYYCAPDPYAYSTYSDYCSWAQGTQGTLVTVSS
# B2: anti-TNF-alpha VHH69 (SEQ ID NO:46) sdAb (VHH)
# VHH: EVQLVESGGGSVLAGGSLRLSCVASGFTSRYNYMAWFRQAPGKEREGVATIGTASGSADYYGSVKDRFTISQDNAKNTVYLQMNSLKPEDTAMYYCAARTYGTISLTPSDYRYWGQGTLVTVSS
# B3: anti-TNF-alpha VHH66 (SEQ ID NO:45) sdAb (VHH)
# VHH: HVQLVESGGGSVEAGGSLRLSCAASGFRYAAYCMGWFRQADGKEREGVATIDIDGLTTHADSVKGRFTISRDNAKNTLSLQMNDLKPEDTAMYYCAADRDRCGSIWTYAYKYRGQGTLVTVSS
# B4: STAT5-31 (SEQ ID NO:83) sdAb (VHH)
# VHH: EVQLVESGGGSVQTGGSLRLSCAASGFPFSSHVMGWFRQAPGKKREGVAAISVDSGSTWYADSVKGRFTISLDSAKNTLYLQMNSLKPEDTAMYYCATRRGVILTLSPETYDYWGQGTQVTVSS
# B5: anti-TNF-alpha VHH62 (SEQ ID NO:47) sdAb (VHH)
# VHH: B1 VHH
# B6: anti-TNF-alpha VHH69 (SEQ ID NO:46) sdAb (VHH)
# VHH: B2 VHH
# B7: anti-TNF-alpha VHH66 (SEQ ID NO:45) sdAb (VHH)
# VHH: B3 VHH
# Experiments:
# [1] = biological target: commercially available anti-Stat3 antibody (Abcam, Cambridge, Mass.); assay: ELISA, antibody coated at 1 µg/mL, secondary antibody 1:5,000, Experiment 3
# [2] = biological target: TNF-alpha (U937 cytotoxicity assay of Example 16) (UniProt P01375 77-233, limits assumed); assay: cell-based or functional assay
# [3] = biological target: Human recombinant TNF-α (Sigma-Aldrich) (human, UniProt P01375 77-233); assay: cell-based or functional assay
# STAT 1 protein [4] = biological target: T1, STAT 1 protein (UniProt P42224 1-750, limits assumed); assay: sandwich ELISA, STAT protein coated at 0.5 µg/mL
# T1 sequence (looked up): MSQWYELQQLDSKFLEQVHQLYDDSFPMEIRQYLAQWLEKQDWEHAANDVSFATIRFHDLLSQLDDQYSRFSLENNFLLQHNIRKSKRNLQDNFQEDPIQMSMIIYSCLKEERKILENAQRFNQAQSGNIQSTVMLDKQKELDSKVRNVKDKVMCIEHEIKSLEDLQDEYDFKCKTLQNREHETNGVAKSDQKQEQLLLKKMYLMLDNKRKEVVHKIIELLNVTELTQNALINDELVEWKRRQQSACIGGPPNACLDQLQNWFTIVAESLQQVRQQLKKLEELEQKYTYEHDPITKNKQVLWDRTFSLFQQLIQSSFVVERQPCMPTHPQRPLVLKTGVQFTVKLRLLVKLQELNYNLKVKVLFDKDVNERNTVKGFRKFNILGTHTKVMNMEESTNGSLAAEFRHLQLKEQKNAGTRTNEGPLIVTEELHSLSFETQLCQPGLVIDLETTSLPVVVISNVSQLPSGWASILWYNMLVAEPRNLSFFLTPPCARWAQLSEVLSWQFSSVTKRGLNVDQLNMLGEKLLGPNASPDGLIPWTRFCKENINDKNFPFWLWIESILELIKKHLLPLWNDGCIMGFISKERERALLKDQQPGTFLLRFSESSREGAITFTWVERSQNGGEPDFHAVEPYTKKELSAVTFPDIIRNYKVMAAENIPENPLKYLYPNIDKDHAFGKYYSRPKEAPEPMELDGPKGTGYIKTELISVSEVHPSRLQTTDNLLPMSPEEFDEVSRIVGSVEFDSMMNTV
# STAT 2 protein [5] = biological target: T2, STAT 2 protein (UniProt P52630 1-851, limits assumed); assay: sandwich ELISA, STAT protein coated at 0.5 µg/mL
# STAT 5a protein [6] = biological target: T3, STAT 5a protein (UniProt P42229 1-794, limits assumed); assay: sandwich ELISA, STAT protein coated at 0.5 µg/mL
# T3 sequence (looked up): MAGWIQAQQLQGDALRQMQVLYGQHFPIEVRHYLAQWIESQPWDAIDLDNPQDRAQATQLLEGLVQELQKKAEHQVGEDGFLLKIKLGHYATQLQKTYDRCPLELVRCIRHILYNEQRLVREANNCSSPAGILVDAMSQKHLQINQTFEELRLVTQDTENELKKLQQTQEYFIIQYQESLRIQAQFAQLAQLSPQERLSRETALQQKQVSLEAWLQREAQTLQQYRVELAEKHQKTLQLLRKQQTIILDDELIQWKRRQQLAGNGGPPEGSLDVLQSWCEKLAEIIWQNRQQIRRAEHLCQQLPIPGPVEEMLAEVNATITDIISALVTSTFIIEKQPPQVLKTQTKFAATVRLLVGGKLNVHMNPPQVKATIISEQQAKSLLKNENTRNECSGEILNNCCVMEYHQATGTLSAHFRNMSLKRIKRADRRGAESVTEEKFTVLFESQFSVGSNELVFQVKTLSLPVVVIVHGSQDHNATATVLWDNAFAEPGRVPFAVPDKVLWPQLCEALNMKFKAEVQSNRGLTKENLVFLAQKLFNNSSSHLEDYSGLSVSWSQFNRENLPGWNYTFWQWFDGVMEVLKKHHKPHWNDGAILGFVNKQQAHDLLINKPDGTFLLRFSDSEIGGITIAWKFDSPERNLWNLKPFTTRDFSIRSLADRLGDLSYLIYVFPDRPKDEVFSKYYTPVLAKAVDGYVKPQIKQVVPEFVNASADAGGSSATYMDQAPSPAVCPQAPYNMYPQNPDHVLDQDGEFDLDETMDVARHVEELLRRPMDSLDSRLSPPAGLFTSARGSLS
# STAT 1 protein [7] = biological target: T1, STAT 1 protein; assay: sandwich ELISA, STAT protein coated at 0.5 µg/mL; remark: listed apart in the source
# STAT 2 protein [8] = biological target: T2, STAT 2 protein; assay: sandwich ELISA, STAT protein coated at 0.5 µg/mL; remark: listed apart in the source
# STAT 5a protein [9] = biological target: T3, STAT 5a protein; assay: sandwich ELISA, STAT protein coated at 0.5 µg/mL; remark: listed apart in the source
# STAT 1 protein [10] = biological target: T1, STAT 1 protein; assay: sandwich ELISA, STAT protein coated at 0.5 µg/mL; remark: listed apart in the source
# STAT 2 protein [11] = biological target: T2, STAT 2 protein; assay: sandwich ELISA, STAT protein coated at 0.5 µg/mL; remark: listed apart in the source
# STAT 5a protein [12] = biological target: T3, STAT 5a protein; assay: sandwich ELISA, STAT protein coated at 0.5 µg/mL; remark: listed apart in the source
# STAT 1 protein [13] = biological target: T1, STAT 1 protein; assay: sandwich ELISA, STAT protein coated at 0.5 µg/mL; remark: listed apart in the source
# STAT 2 protein [14] = biological target: T2, STAT 2 protein; assay: sandwich ELISA, STAT protein coated at 0.5 µg/mL; remark: listed apart in the source
# STAT 5a protein [15] = biological target: T3, STAT 5a protein; assay: sandwich ELISA, STAT protein coated at 0.5 µg/mL; remark: listed apart in the source
# [16] = biological target: T4, active human TNF-α full length protein (human, UniProt P01375 77-233); assay: ELISA, wells coated with 0.5 µg/mL TNF-α, sdAb at 1 µg/mL
# [17] = biological target: T4, active human TNF-α full length protein
# [18] = biological target: T4, active human TNF-α full length protein; remark: listed apart in the source
# [19] = biological target: T4, active human TNF-α full length protein; remark: listed apart in the source
# [20] = biological target: T4, active human TNF-α full length protein; remark: listed apart in the source
# [21] = biological target: T4, active human TNF-α full length protein; remark: listed apart in the source
# [22] = biological target: T4, active human TNF-α full length protein; remark: listed apart in the source
# [23] = biological target: T4, active human TNF-α full length protein; remark: listed apart in the source
# [24] = biological target: T4, active human TNF-α full length protein; remark: listed apart in the source
# [25] = biological target: T4, active human TNF-α full length protein; remark: listed apart in the source
# [26] = biological target: T4, active human TNF-α full length protein; remark: listed apart in the source
# [27] = biological target: T4, active human TNF-α full length protein; remark: listed apart in the source
# [28] = biological target: T4, active human TNF-α full length protein; remark: listed apart in the source
# Human recombinant TNF-α (Sigma-Aldrich), sequence (P01375 77-233 limits assumed): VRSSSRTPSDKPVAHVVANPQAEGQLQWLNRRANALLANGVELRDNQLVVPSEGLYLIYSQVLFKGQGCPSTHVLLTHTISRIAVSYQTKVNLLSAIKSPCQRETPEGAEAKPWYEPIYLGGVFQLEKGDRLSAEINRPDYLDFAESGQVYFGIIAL
# T4 sequence (P01375 77-233 limits assumed): as above
# T2 sequence (P52630 whole entry): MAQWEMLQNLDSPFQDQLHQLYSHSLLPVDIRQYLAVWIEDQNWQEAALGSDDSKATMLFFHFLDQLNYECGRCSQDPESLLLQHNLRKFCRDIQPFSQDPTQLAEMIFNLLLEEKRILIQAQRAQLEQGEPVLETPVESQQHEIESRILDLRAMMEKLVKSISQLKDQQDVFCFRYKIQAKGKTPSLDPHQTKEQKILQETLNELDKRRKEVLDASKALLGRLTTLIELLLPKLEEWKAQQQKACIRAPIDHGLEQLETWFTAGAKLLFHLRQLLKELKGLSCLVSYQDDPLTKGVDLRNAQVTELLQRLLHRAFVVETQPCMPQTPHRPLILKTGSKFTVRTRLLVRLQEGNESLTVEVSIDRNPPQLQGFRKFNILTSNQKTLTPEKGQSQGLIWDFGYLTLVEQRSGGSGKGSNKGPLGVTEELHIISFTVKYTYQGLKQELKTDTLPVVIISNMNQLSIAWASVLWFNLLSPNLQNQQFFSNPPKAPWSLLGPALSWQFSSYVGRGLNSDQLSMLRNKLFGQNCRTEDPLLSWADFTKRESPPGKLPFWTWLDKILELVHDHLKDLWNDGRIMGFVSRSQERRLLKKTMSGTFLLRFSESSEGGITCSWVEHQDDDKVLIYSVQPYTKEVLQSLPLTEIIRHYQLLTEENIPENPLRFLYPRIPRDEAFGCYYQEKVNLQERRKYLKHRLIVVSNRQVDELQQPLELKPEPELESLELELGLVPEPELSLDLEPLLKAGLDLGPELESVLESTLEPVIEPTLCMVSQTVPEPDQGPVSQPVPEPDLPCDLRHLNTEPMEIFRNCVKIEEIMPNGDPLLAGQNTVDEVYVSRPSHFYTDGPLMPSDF
# TNF-alpha (U937 cytotoxicity assay of Example 16), sequence (P01375 77-233 limits assumed): as the sequence (P01375 77-233 limits assumed) above
molecule,measurement,setting,value
his-probe (H-3) biotin labeled antibody,OD450,[1],0.018 OD450
B1,"IC50 (inhibition of TNF-alpha cytotoxicity against U937 cells, ATP luminescence)",[2],~714 µg/mL
B2,"IC50 (inhibition of TNF-alpha cytotoxicity against U937 cells, ATP luminescence)",[2],> 208 µg/mL
B3,"EC50 (inhibition of TNF-α cytotoxicity on L929 cells, Assay 1, Batch A)",[3],2.9 µg/mL
same,"EC50 (inhibition of TNF-α cytotoxicity on L929 cells, Assay 1, Batch B)",[3],1.2 µg/mL
same,"EC50 (inhibition of TNF-α cytotoxicity on L929 cells, Assay 1, Batch C)",[3],2.3 µg/mL
same,"EC50 (inhibition of TNF-α cytotoxicity on L929 cells, Assay 2, Batch B)",[3],4.5 µg/mL
same,"EC50 (inhibition of TNF-α cytotoxicity on L929 cells, Assay 2, Batch C)",[3],6.2 µg/mL
B4,Mean OD450,STAT 1 protein [4],0.056 OD450
same,Mean OD450,STAT 2 protein [5],0.015 OD450
same,Mean OD450,STAT 5a protein [6],0 OD450
same,Mean OD450,STAT 1 protein [7],0.122 OD450
same,Mean OD450,STAT 2 protein [8],0.076 OD450
same,Mean OD450,STAT 5a protein [9],0.158 OD450
same,Mean OD450,STAT 1 protein [10],0.015 OD450
same,Mean OD450,STAT 2 protein [11],0 OD450
same,Mean OD450,STAT 5a protein [12],0 OD450
same,Mean OD450,STAT 1 protein [13],0.024 OD450
same,Mean OD450,STAT 2 protein [14],0.007 OD450
same,Mean OD450,STAT 5a protein [15],0.017 OD450
B5,OD450,[16],0.005 OD450
same,Signal/Noise Ratio,[17],2
same,Signal/Noise Ratio,[18],1.9
same,Signal/Noise Ratio,[19],1.5
same,Signal/Noise Ratio,[20],1.4
same,Signal/Noise Ratio,[21],1.7
same,Signal/Noise Ratio,[22],1.5
same,Signal/Noise Ratio,[23],1.1
same,Signal/Noise Ratio,[24],1.1
same,Signal/Noise Ratio,[25],1.4
same,Signal/Noise Ratio,[26],1.3
same,Signal/Noise Ratio,[27],1.1
same,Signal/Noise Ratio,[28],0.9
B6,OD450,[16],1.95 OD450
same,Signal/Noise Ratio,[17],8
same,Signal/Noise Ratio,[18],7.5
same,Signal/Noise Ratio,[19],3.2
same,Signal/Noise Ratio,[20],2.4
same,Signal/Noise Ratio,[21],5.9
same,Signal/Noise Ratio,[22],3.7
same,Signal/Noise Ratio,[23],1.6
same,Signal/Noise Ratio,[24],1.6
same,Signal/Noise Ratio,[25],2.1
same,Signal/Noise Ratio,[26],1.9
same,Signal/Noise Ratio,[27],1.5
same,Signal/Noise Ratio,[28],1.3
B7,OD450,[16],3.86 OD450
